Data on 21 molecules can be found in US20200109194A1 (BLUEFIN BIOMEDICINE, published 2020).

Where a chain is given by its changes, count along the chain named. Names and notes keep the numbering of the source.

B1: 24F10 (antibody, V domains shown)
VH: QVQLVESGGGVVQPGRSLRLSCAASGFTFSSYGMHWVRQAPGKGLEWVAVIWYDGSDKYYTDSVKGRFTISRDNSKNTLYLQMNSLRAEDTAVYYCARESMVRGIVITFFDYWGQGTLVTVSS
VL: EIVMTQSPATLSVSPGERATLSCRASQSVSSNLAWYQQKPGQAPRLLIYGASTRATGIPARFSGSGSGTEFTLTISSLQSEDFAVYSCQHYNNWPPTFGGGTKVEIK
B2: 30C10 (antibody, human IgG1, V domains shown)
VH: B1 VH with T61A, N77K, Y95F, S100T, M101I, V102F, I105L, V106T, Y112H
VL: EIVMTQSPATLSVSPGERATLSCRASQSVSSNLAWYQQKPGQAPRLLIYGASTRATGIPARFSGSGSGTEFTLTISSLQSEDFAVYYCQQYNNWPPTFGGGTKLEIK
B3: 34B7 (antibody, human IgG1, V domains shown)
VH: QVQLVESGGGVVQPGRSLRLSCAASGFTFTSYGMHWVRQAPGKGLEWVAVVWYEGNSKFYIDSVKGRFIISRDNSKNTLYLQMNSLRAEDTAVYYCARAYCGDDCYPFDYWGQGTLVTVSS
VL: DIQMTQSPSSLSASVGDRVTITCRASQGISNYLAWYQQKPGKVPKLLIYAASTLQSGVPSRFSGSGSGTDFTLTISSLQPEDVATYYCQKYNSAPWTFGQGTKLEIK
B4: 31B7 (antibody, human IgG1, V domains shown)
VH: QVQLVESGGGVVQPGRSLRLSCAASGFTFSSYGMHWVRQAPGKGLEWVAVIWYNGINKYYADSVKGRFTISRDASKNTLYLQMNSLRAEDTAVYYCAREGLLWFGGMDVWGQGTTVTVSS
VL: EIVLTQSPLSLPVTPGEPASISCRSSQSLLHSNGYNYLHWYLQKPGQSPQLLIYLGSNRASGVPDRFSGSRSGTDFTLKIIRVEAEDVGVYYCMQALQTPYTFGQGTKLEIK
B5: 43B2_56A6 (antibody, human IgG1, V domains shown)
VH: EVQLLESGGGLVQPGGSLRLSCAASGFTFSSYAMSWVRQAPGKGLEWVSTISGSGDSTYYADSVKGRFTISRDNSKNTLYLQMNSLRAEDTAIYYCAKFGVRGVIITNWFDPWGQGTLVTVSS
VL: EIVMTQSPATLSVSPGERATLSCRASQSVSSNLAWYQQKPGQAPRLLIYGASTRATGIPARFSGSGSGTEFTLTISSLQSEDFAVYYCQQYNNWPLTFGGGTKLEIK
B6: 50B4_56B2 (antibody, human IgG1, V domains shown)
VH: B5 VH with A88V
VL: B1 VL with A43V, S87Y, H90Q, P96L
B7: 27G5_56A2 (antibody, V domains shown)
VH: QVQLQESGPGLVKPSETLSLTCAVSDYSISSGYYWGWIRQPPGKGLEWIGSIYHSGSTYYNPSLKSRVTISVDMSKNQFSLKLSSVTAADTAVYYCARDRDSVSWNGGRDYYYYGMDVWGQGTTVTVSS
VL: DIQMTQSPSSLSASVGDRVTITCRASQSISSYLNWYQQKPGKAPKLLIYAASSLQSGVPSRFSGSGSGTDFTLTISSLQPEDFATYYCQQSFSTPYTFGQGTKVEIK
B8: 34E1_56A4 (antibody, human IgG1, V domains shown)
VH: B4 VH with F27L, S31R, G33A, N54D, I56S, A74T
VL: B4 VL with E1D, R71G, I81S, V90L
B9: 11F9 (antibody, human IgG1, V domains shown)
VH: EVQLVESGGGLVKPGGSLRLSCAASGFTFSYAWMSWVRQAPGKGLEWVGRIKSKTDGGTTDYAAPVKGRFTISRDDSKNTLYLQLNSLKIEDTAVYYCTTGRIAAAGFDYWAQGTLVTVSS
VL: DAVVTQESALTTSPGETVTLTCRSSTGTVTTSNYANWVQEKPDHLFTGLIAGTNNRAPGVPARFSGSLIGDKAVLTITGAQTEDEAIYFCALWYSNHWVFGGGTKLTVLG
B10: 3H9 (antibody, human IgG1, V domains shown)
VH: B9 VH with T28V, S35N, D56E, Y62N, D75E, A112G
VL: B9 VL with V74A
B11: 37G7 (antibody, human IgG1, V domains shown)
VH: B3 VH with N56S, I61V, D103G
VL: B3 VL with L104V
B12: M17 (antibody, human IgG1, V domains shown)
VH: QVQLVESGGGVVQPGRSLRLSCAASGFTFRSYGMHWVRQAPGKGLEWVALIWYDGGDQYYADSVKGRFTISRDSSKSTLYLQMNSLRAEDTAVYYCARAQCGDDCYPFDYWGQGTLVTVSS
VL: B3 VL with S30Y, A94D
B13: 35B1 (antibody, human IgG1, V domains shown)
VH: B3 VH with S31T, Y53F, Y80F, Y100N, D103A
VL: B3 VL with T72S, Q79R, L104V
B14: 29C4 (antibody, human IgG1, V domains shown)
VH: QVQLVESGGGVVQPGRSLRLSCAASGFTFSNYGMHWVRQAPGKGLEWVAVIWYDGGPKFYADSVKGRFTISRDNSKNTLYLQMNSLRAEDTAVYYCARSYCGGDCYPFDYWGQGDLVTVSS
VL: B3 VL with N92Y, L104V
B15: 10C10 (antibody, human IgG1, V domains shown)
VH: QVQLVESGGGVVQPGRSLRLSCATSGFTFSIYGMHWVRQAPGKGLEWVAIIWYDGNKKYYADSVKGRFTISRDNSKNTLYLQMNSLRAEDTAVYYCARDPYTSSLDYWGQGTLVTVSS
VL: DIQLTQSPSFLSASVGDRVTITCRASQGISSYLAWYQQKPGKAPKLLIYAASTLQSGVPSRFSGSGSGTEFTLTISSLQPEDFATYYCQQLNSYPLTFGGGTKLEIK
B16: M33F (antibody, human IgG1, V domains shown)
VH: QVQLQESGPGLVKPSETLSLTCAVSGYSISSGYFWGWIRQPPGKKLEWIGSIYHSGSTYYNPSLKSRVTMSVDTSKNQFSLKLSSVTAADTAVYYCAREGDCSGGICYWYFDLWGRGTLVTVSS
VL: B15 VL with L4M, F10S, S31N, A43V, F71V, P80S, T85V, L91Y, S93K, Y94W
B17: 19D9 (antibody, human IgG1, V domains shown)
VH: B15 VH with T24A, I50N, N56S, A92S
VL: B15 VL with A50T
B18: 7F12 (antibody, human IgG1, V domains shown)
VH: B15 VH with T24A, N56S, K57D, S103T
VL: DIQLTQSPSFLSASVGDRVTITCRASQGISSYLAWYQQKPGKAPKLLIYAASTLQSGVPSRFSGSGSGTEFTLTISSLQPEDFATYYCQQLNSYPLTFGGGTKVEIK
B19: M1H1 (antibody, human IgG1, V domains shown)
VH: B16 VH
VL: B3 VL with V83F, T85V, K90Q, S93K, A94W, W96L, Q100G
B20: 18C2 (antibody, human IgG1, V domains shown)
VH: B15 VH with T24A, K43M, W52R, N56S, K57N, Q82R, Y101F
VL: B15 VL
B21: 6C11 (antibody, human IgG1, V domains shown)
VH: QVQLQQSGPGLVKPSQTLSLTCAISGDSVSSNSAAWNWIRQSPSRGLEWLGRTYYRSKWYNDYPVSVKSRITINPDTSKNQVSLQLNPVTPEDTAVYYCTREQGYSSSRYYYYYGMDVWGQGTTVTVSS
VL: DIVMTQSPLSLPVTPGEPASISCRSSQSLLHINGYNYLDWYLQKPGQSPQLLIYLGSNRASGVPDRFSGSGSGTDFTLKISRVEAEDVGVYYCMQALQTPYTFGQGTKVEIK

One test has as its target T1, Macaca fascicularis TMEFF1 extracellular domain recombinant protein (plasmid BBP480, S40-V330, C-terminal … (Macaca fascicularis)).
T1 construct: range 40-330; also called cyTMEFF1 ECD; monkey TMEFF1 ectodomain
As to the kind of experiment: BLI (Octet Red), antibody on Protein A biosensor, recombinant cyTMEFF1 ECD as analyte. As to the method: (§1) The affinity of antibodies to various recombinant TMEFF1 protein was determined on an Octet Red™ instrument. After loading reagents into a 96-well plate, the Octet Red™ with Protein A-conjugated biosensors was programmed as follows: 30 seconds for baseline #1; 120 seconds to immobilize the antibody; 30 seconds for baseline #2; 300 seconds for association of antibody to recombinant TMEFF1; and 300-600 seconds for dissociation of recombinant TMEFF1 from the antibody.
Affinity of 7 antibodies was calculated using cyTMEFF1 ECD recombinant protein by Octet™.
As for B1, the Kd is 65 nM.
As for B2, the Kd came out at 7 nM.
As to B3, the Kd amounted to 22 nM.
Take B4: the Kd amounted to 101 nM.

The target of another test is T2, human TMEFF1 extracellular domain recombinant protein (plasmid BBP377, S40-V330, C-terminal 8xHis) (human, UniProt Q8IYR6 40-330).
T2 construct: Secreted from CHO cells with a non-native signal peptide (not part of the mature protein); also called hTMEFF1 ECD; hTMEFF1-ECD
T2 sequence: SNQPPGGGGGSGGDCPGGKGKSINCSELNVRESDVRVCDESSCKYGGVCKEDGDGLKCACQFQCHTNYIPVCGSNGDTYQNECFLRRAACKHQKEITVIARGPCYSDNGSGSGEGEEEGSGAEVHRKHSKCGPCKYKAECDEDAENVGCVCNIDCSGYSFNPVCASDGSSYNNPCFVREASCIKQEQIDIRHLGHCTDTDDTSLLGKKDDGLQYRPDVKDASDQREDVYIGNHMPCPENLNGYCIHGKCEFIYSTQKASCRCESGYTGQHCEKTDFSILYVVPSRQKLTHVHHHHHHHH
As to the kind of experiment: BLI (Octet Red), antibody on Protein A biosensor, recombinant hTMEFF1 ECD as analyte. As to the method:
as §1
Affinity of thirteen antibodies was calculated using hTMEFF1 ECD recombinant protein by Octet™.
Regarding B1, the Kd amounted to 50 nM.
For B2, the Kd turned out to be 4 nM.
Consider B5, for which the equilibrium dissociation constant (Kd) was found to be 39 nM.
Consider B6, for which the Kd stood at 52 nM.
With B3, the Kd was 20 nM.
On to B7, for which the Kd was 69 nM.
Still for that read-out and setting: the result for B4 reads 43 nM.
On to B8, for which the Kd stood at 98 nM.

A further test deals with T2, human TMEFF1 extracellular domain …. As to the kind of experiment: BLI (Octet Red), His-tagged TMEFF1 ECD and deletion mutants on anti-Penta-His biosensors, unpurified recombinant antibody. As to the method:
TMEFF1 recombinant proteins expressing 3 different deletion mutants, AFS1 (AFollistatin Domain 1), AFS2 (AFollistatin Domain 2) or AFS1&FS2 were used to identify binding domains among different antibodes using an Octet Red instrument with Anti-Penta-His (HIS 1K) biosensors. […] 100 ngs of purified TMEFF1 ECD was run along with unpurified supernatant of transfected CHO cells with the different deletion mutants. HIS 1K biosensors were loaded by submerging the biosensors into wells containing 10 ug/ml of full length TMEFF1 or one of 3 different deletion mutants (AFS1, AFS2 or AFS1&FS2) for 60 seconds. Following the loading step, the biosensors were then dipped for 30 seconds in PBS before immersion for 30 seconds in 200 ul of unpurified recombinant antibodies for 30 seconds. The biosensors were then dipped briefly (30 seconds) in PBS to observe any dissociation. […] Differential binding to the deletion mutants allowed for determination of binding sites on TMEFF1 recombinant protein. For cases where the antibody bound all 3 recombinant proteins, the binding is outside of the deleted domains.
26 of the identified antibodies were checked for epitope domain binding by Octet™ using the hTMEFF1-ECD recombinant deletion mutants (see Table 7, below).
Take B9: the binding result was “binds”.
Take B10: the binding result is “binds”.
In the case of B11, the binding result was “binds”.
With B12, the binding result is reported as “binds”.
Still for that read-out and setting: the same measure for B13: “binds”; for B14: “binds”.
Same read-out and setting: the result for B15 reads “binds”; that for B16, “binds”; that for B17, “binds”.
On the same count and under the same terms, the result for B18 reads “binds”; that for B19, “binds”; that for B20, “binds”.
Regarding B21, the binding result was “binds”.
